Legend:
[1] = target: T1, human Siglec-8 (full-length, on cells) (human, UniProt Q9NYZ4 17-499); assay: flow cytometry on human eosinophils (CD16- CCR3+) from whole blood, anti-human AF647 secondary, MFI
T1 construct: Used for full-length human Siglec-8 transiently expressed on CHO or 293 cells and for native Siglec-8 on primary human eosinophils
Text: To determine if increasing the valency of Siglec-8 antibodies could enhance agonist activity, the parental llama B12, D1 and E2 VHH sequences were used to generate tetravalent (Tet-B12 (cx8467; SEQ ID NO:50 linked to an Fc), Tet-D1 (cx8469; SEQ ID NO:56 linked to an Fc), and Tet-E2 (cx8463; SEQ ID NO:62 linked to an Fc)) and hexavalent (Hex-B12 (cx8466; SEQ ID NO:51 linked to an Fc), Hex-D1 (cx8523; SEQ ID NO:57 linked to an Fc), and Hex-E2 (cx8522; SEQ ID NO:165 linked to an Fc)), Siglec8-VHH-Fc antibodies linked to a reduced effector function xELL human Fc region via linker 2. The bivalent (Bi-B12 (cx8982), Bi-D1 (cx8983) and Bi-E2 (cx8984)), tetravalent, and hexavalent Siglec8-VHH-Fc antibodies were assessed by flow cytometry for binding to eosinophils (CD16⁻ CCR3⁺). […] Cells were spun down and then resuspended in titrated test articles starting at 200 nM 1:4 and incubated for 30 minutes at 4° C. before being washed twice and resuspended in secondary mixture (2*; anti-CCR3 FITC, anti-human AF647, PI, anti-CD16 BV605) and incubated for 30 minutes at 4° C., washed twice, and bound antibodies were detected via flow cytometry (Novocyte). […]

[2] = target: T1, human Siglec-8 (full-length, on cells); assay: flow cytometry, CHO cells transfected with human Siglec-8, anti-human Fc-gamma secondary, Median RL1-H
Protocol: In additional studies, the parental llama G2 sequence was humanized and multivalent hzSiglec8-G2v14-Fc antibodies were cloned with a reduced effector function xELL human Fc. Binding of bivalent (cx11422; SEQ ID NO: 5 linked to an Fc xELL via linker 2), tetravalent (cx11580; SEQ ID NO: 9 linked to an Fc xELL via linker 2), and hexavalent (cx11579; SEQ ID NO: 10 linked to an Fc xELL via linker 2) hzSiglec8-G2v14-Fc antibodies were assessed by flow cytometry using CHO cells transfected with human Siglec-8. A titration series of the fusion proteins were incubated with the Siglec8-expressing CHO cells (5×10⁴ cells/well) for 30 minutes at 4° C. in FACS Buffer (PBS 1% BSA, 0.1% NaN3 pH 7.4) in 96 well plates. Following one 150 μL wash with FACS buffer, an APC-conjugated anti-human Fcγ specific secondary antibody (Jackson ImmunoResearch) was added, and cells were incubated for 30 minutes at 4° C. Following one additional wash in FACS buffer, bound antibodies were detected via flow cytometry (iQue Intellicyte).
The calculated affinity was similar between the bivalent, tetravalent, and hexavalent hzSiglec8-G2v14-Fc antibodies. The observed Bmax was reduced with increasing valency as anticipated, due the fact that the Fc portion of the antibody was detected in this assay and the ratio of Fc regions to anti-Siglec-8 binding domains is inverse to valency.

[3] = target: T1, human Siglec-8 (full-length, on cells); assay: flow cytometry, CHO cells transiently transfected with full-length human Siglec-8, A647 anti-human Fc-gamma secondary, Mean RL1-H
Protocol: Binding of the anti-human Siglec-8 VHHs, B12, D1, E2, and G2, as a bivalent VHH-hIgG1-xELL-Fc (VHH of SEQ ID NO: 49, 55, 61, and 1, respectively linked to an Fc xELL via linker 2, these constructs are also designated cx8982, cx8983, cx8984, and cx10382, respectively) was determined by flow cytometry using CHO cells that had been transiently transfected with full-length human Siglec-8. Binding specificity was assessed using untransfected (UT) CHO cells as a control. For the binding assays, 50,000 Siglec-8 CHOs or UT CHOs were seeded in a 96-well plate and a titration of anti-Siglec8-VHH-xELL was added in FACS Buffer (PBS 1% BSA, 0.1% NaN3 pH 7.4) incubating for 30 minutes at 4° C. After washing, the plates were incubated with an A647-conjugated anti-human Fcγ specific secondary antibody (Jackson ImmunoResearch) diluted 1:2000 in FACS buffer for 30 minutes at 4° C. The plates were washed, and binding was determined by flow cytometry quantitating anti-human A647 mean fluorescent intensity using an Intellicyt iQue Plus.

T1 sequence (Q9NYZ4 17-499): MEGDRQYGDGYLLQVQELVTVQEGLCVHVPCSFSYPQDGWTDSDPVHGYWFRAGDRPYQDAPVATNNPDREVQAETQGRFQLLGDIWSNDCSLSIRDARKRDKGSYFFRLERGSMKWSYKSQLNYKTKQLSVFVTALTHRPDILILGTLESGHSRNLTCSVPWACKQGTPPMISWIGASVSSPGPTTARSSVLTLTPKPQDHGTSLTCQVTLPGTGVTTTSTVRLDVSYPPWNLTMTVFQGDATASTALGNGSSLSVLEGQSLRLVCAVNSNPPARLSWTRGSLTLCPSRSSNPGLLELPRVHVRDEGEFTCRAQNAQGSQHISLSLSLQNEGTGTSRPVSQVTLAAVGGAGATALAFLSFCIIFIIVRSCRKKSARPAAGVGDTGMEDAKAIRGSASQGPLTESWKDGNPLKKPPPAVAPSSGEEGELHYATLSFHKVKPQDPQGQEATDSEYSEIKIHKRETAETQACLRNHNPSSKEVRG

B1: anti-Siglec8-D1-xELL, bivalent VHH-hIgG1-xELL-Fc (cx8983) (Fc fusion)
chain: QVQLVESGGGLVQPGGSLRLSCAASGSIASIHGMGWYRQAPGKERELVAAIAGEGSTYYADSVKGRFTISRDFAKNTLYLQMNNLKAEDTAMYYCANNDERDDYWGQGTQVTVKPGGGGDKTHTCPPCPAPGGPSVFLFPPKPKDTLMISRTPEVTCVVVDVSHEDPEVKFNWYVDGVEVHNAKTKPREEQYNSTYRVVSVLTVLHQDWLNGKEYKCKVSNKALPAPIEKTISKAKGQPREPQVYTLPPSRDELTKNQVSLTCLVKGFYPSDIAVEWESNGQPENNYKTTPPVLDSDGSFFLYSKLTVDKSRWQQGNVFSCSVMHEALHNHYTQKSLSLSPGK
notes: also called Bi-D1
**Q.** Which “EC50 (read off the curve)” value [1] does the source give for B1 here?
**A.** ~0.05 nM

B2: tetravalent hzSiglec8-G2v14-Fc antibody, Fc xELL (cx11580) (Fc fusion)
chain: EVQLLESGGGEVQPGGSLRLSCAASGSISIFSMYVVAWYRQAPGKEREWVAFIQRGGTANYAESAKGRFTISRDNAKNTVYLQMSSLRAEDTAVYYCNYINTDNEIGGPWGQGTLVTVKPGGSGGSEVQLLESGGGEVQPGGSLRLSCAASGSISIFSMYVVAWYRQAPGKEREWVAFIQRGGTANYAESAKGRFTISRDNAKNTVYLQMSSLRAEDTAVYYCNYINTDNEIGGPWGQGTLVTVKPGGGGDKTHTCPPCPAPGGPSVFLFPPKPKDTLMISRTPEVTCVVVDVSHEDPEVKFNWYVDGVEVHNAKTKPREEQYNSTYRVVSVLTVLHQDWLNGKEYKCKVSNKALPAPIEKTISKAKGQPREPQVYTLPPSRDELTKNQVSLTCLVKGFYPSDIAVEWESNGQPENNYKTTPPVLDSDGSFFLYSKLTVDKSRWQQGNVFSCSVMHEALHNHYTQKSLSLSPGK
**Q.** Which “EC50 (read off the curve)” value [2] does the source give for B2 here?
**A.** ~0.03 nM

B3: anti-Siglec8-E2-xELL, bivalent VHH-hIgG1-xELL-Fc (cx8984) (Fc fusion)
chain: QVQLVESGGGLVQPGGSLRLSCATSGIIFTSNVINWYRQAPGKQREFVAFITSITSGQSTMYADAVKGRFTVSRDNDKNIGYLQMTSLQPEDTARYVCNVGAYWGQGTQVTVKPGGGGDKTHTCPPCPAPGGPSVFLFPPKPKDTLMISRTPEVTCVVVDVSHEDPEVKFNWYVDGVEVHNAKTKPREEQYNSTYRVVSVLTVLHQDWLNGKEYKCKVSNKALPAPIEKTISKAKGQPREPQVYTLPPSRDELTKNQVSLTCLVKGFYPSDIAVEWESNGQPENNYKTTPPVLDSDGSFFLYSKLTVDKSRWQQGNVFSCSVMHEALHNHYTQKSLSLSPGK
notes: also called Bi-E2
**Q.** For B3, which “EC50 (read off the curve)” value [3] is on record?
**A.** ~0.3 nM

From patent US20230406925A1 (PHYLAXIS BIOSCIENCE, published 2023)
